According to article doi:10.1101/2023.10.23.563616:

Experiments:
[1] = target: His-tagged TclI N-terminal domain (residues 1-85) (M. caseolyticus)
[2] = target: a tagged version of TclJ or TclN; test: pull-down; nickel copurification: TclI, TclJ and TclN all co-expressed in E. coli, one of them His6-tagged; lysate on Ni-NTA agarose beads, 4°C, 50 mM HEPES pH 7.8, 300 mM NaCl, 60 mM imidazole; SDS-PAGE with Coomassie stain
[3] = target: N-terminally His-tagged TclI (M. caseolyticus); test: SEC; purified TclIJN complex (TclI, TclJ and TclN as a mixture); Yarra 1.8 μm X150 column, 100 mM sodium phosphate pH 6.8, 0.023% NaN3, 25 °C, 1 μg/μL

## GST-TclE Δ18 leader truncation (peptide)
[1]
  percentage of TclE peptides fully modified (six thiazoles) by LC-MS after co-expression of GST-TclE Δ18 with TclI, TclJ and TclN in E. coli: 71.6%

## TclI (untagged) (natural protein)
[2]
  stoichiometry N (TclI per tagged enzyme (densitometry)): 2 to 8

## TclJ (untagged) (enzyme)
[3]
  stoichiometry N (TclI per TclJ): 2

## TclN (untagged) (enzyme)
[3]
  stoichiometry N (TclI per TclN): 2
